This data set deals with the molecule itself. As to the kind of experiment: SEC-MALS. In general terms: SEC sorts molecules by how far they enter the pores of the column.

In general, stoichiometry N refers to the number of molecules, sites or subunits per partner or assembly.

B1: Human apolipoprotein-D (apoD) from breast cyst fluid (natural protein, UniProt P05090 21-189, looked up)
chain: QAFHLGKCPNPPVQENFDVNKYLGRWYEIEKIPTTFENGRCIQANYSLMENGKIKVLNQELRADGTVNQIEGEATPVNLTEPAKLEVKFSWFMPSAPYWILATDYENYALVYSCTCIIQLFHVDFAWILARNPNLPPETVDSLKNILTSNNIDVKKMTVTDQVNCPKLS
modifications: N-linked glycosylation at N45 and N78 (mature numbering)
As to B1, the “stoichiometry N” value was determined as 4.
